Measurements published in a protein production outcome set (Wang et al. 2014).

Assay: label from the status in PepcDB records

Sequence: MKIKRLYLLGAWLLLGVSVSAQITSIQPQPQQVLSQARNLSLPDTYLIVGDTEANTHAVSALKTLLAGKHSDKNGFRIYIGEKGDKAIRKFARQIPNHKEGYYLAINDKEIVLAGQDGRGTFYALQTLAQLLNDNQLPVVEIKDYPSVRFRGVVEGFYGTPWSHEARLRQLKFYGENKMNTYIYGPKDDPYHSSPNWRLPYPEKEALQLQELVKVANENEVDFVWAIHPGQDIKWNQEDRDLLLAKFEKMYDLGVRSFAVFFDDISGEGTNPNKQAELLNYIDEKFVKVKPDVTPLVMCPTEYNKSWSNPKGNYLTTLGEKLNPSIQIMWTGDRVISDITKDGIAWINARIKRPAYIWWNFPVSDYVRDHLLLGPVYGNDTQIADQMSGFVTNPMEHAEASKIAIYSVAGYAWNPEKYNSEQTWKDAIRTILPSAADELEFFAAHNSDLGPNGHKYRRDESVELQPLSQRFLDSYLKNGSYTEADFNALEATFGKMVESGDVLMTNTGNRPLIVEMMPWLRQFKLLGETGQEVLAMAKAYKEGDNSLFIRKYRHVKALQQQMFQVDQTYNQNPYQPGVKTATKVIKPLIDQTFTTVTERYNKEHGTQLDAATDYMPHKLVSDVEQLRNQPLQIKTNRVLVSPANEVIKWGAGCTLTIELDQAYPGENLDIDFGKPDVAAWGQLEISADGKEWQKVDFKQEKNRITLNLKQTPVKAVRFSNVGNAEQEVYLRRFMITLDK
- protein production: failed

Sequence: MEENTAVAAAERRSGCGLLSVMFGRRGLWSKKSTAVDNGSQKSTSTAATATSNIQFTKSPGTELKKPRDDQKVSAEPIQNNKIQNNQNHNQRSVVPSKPSSNQYPNNHQLGTYENHQRSSYNNNSNSVDPYRGGGGQRKVPREAIGLSGELESMITDHQKAKGTNGLVRASSSNIMLYGNLGNLNQTGPVTAGVNYGNNNGYGVKRTTMGAATATTTKSQDQSGSLCRAISTRMDPETLKIMGNEDYKNGNFAEALALYDAAIAIDPNKAAYRSNKSAALTALGRILDAVFECREAIRIEPHYHRAHHRLGNLYLRLGEVEKSIYHFKHSGPEADREDIAKAKTVQTHLNKCTEAKRLRDWNGLITETTNTISSGADAAPQVYALQAEALLKTHRHQEADDALSRCPVFDIDASTRYYGPVGYAGFLVVRAQVHLASGRFDEAVEAIQRAGKLDGNNREVIMISRRAQAVTEARFKGNELFKSGRFQEACAAYGEGLDHDPRNSVLLCNRAACRSKLGQFDKSIEDCTAALSVRPGYGKARLRRADCNAKIEKWELAVGDYEILKKESPEDEQVIRGLSEAQQQLMKRSGQDS
- protein production: failed

Sequence: MERAVPLAVPLGQTEVFQALQRLHMTIFSQSVSPCGKFLAAGNNYGQIAIFSLSSALSSEAKEESKKPVVTFQAHDGPVYSMVSTDRHLLSAGDGEVKAWLWAEMLKKGCKELWRRQPPYRTSLEVPEINALLLVPKENSLILAGGDCQLHTMDLETGTFTRVLRGHTDYIHCLALRERSPEVLSGGEDGAVRLWDLRTAKEVQTIEVYKHEECSRPHNGRWIGCLATDSDWMVCGGGPALTLWHLRSSTPTTIFPIRAPQKHVTFYQDLILSAGQGRCVNQWQLSGELKAQVPGSSPGLLSLSLNQQPAAPECKVLTAAGNSCRVDVFTNLGYRAFSLSF
- protein production: failed

Sequence: MLGSQCAASEPVPAHSLWRGQDMSPNMRGALLMTGSMAAFTCNDTVVKLLGSEMPLFQILVLRSGLSAVWIYFLARRLGALHLRFGRRDRMLVALRCLSEIGATYFFLTALLNMPLANVTAVLQMLPLTVTLGAALFFGEQVGWRRMLAIGLGFCGMLLIVRPGPDGFTLHAIYAMAAVICVTARDLVTRRMSSHVPSLTVTLATALSVMSFGLVGSLTVDWVPLTTDLGLGLLAASLLVLGGYLFSVMVMRIGEVGFVAPFRYSSLLWALVLGWLVFGDWPDPLTMAGVALVVATGLFTLFRERASRHRG
- protein production: failed

Sequence: MDSMDHRIERLEYYIQLLVKTVDMDRYPFYALLIDKGLSKEEGEAVMRICDELSEELATQKAQGFVTFDKLLALFAGQLNEKLDVHETIFALYEQGLYQELMEVFIDIMKHFD
- protein production: not failed

Sequence: EQEDRALRSFKLSVTVDPKYHPKIIGRKGAVITQIRLEHDVNIQFPDKDDGNQPQDQITITGYEKNTEAARDAILRIVGELEQM
- protein production: not failed

Sequence: VQTPALIIVTGHPATGKTTLSQALATGLRLPLLSKDAFKEVMFDGLGWSDREWSRRVGATAIMMLYHTAATILQSGQSLIMESNFRVDLDTERMQNLHTIAPFTPIQIRCVASGDVLVERILSRIAQGARHPGHCDDRSPADLELVRSRGDIPPLPLGGPLLTVDTTFPEQIDMNAIVQWVRQHLQSGTAFL
- protein production: not failed

Sequence: ADLGRKITSALRSLSNATIINEEVLNAMLKEVCTALLEADVNIKLVKQLRENVKSAIDLEEMASGLNKRKMIQHAVFKELVKVKVY
- protein production: not failed

Sequence: GPHQRLEKLDSLLSDYDILSLSNIQQHSVRKRDLQTSTHVETLLTFSALKRHFKLYLTSSTERFSQNFKVVVVDGKNESEYTVKWQDFFTGHVVGEPDSRVLAHIRDDDVIIRINTDGAEYNIEPLWRFVNDTKDKRMLVYKSEDIKNVSRLQSPKVCGYLKVDNEELLPKGLVDREPPEGKT
- protein production: not failed

Sequence: MLTVKQRETDCPMDLNTLISQYGYAALVIGSLAEGETVTLLGGVAAHQGLLKFPLVVLSVALGGMIGDQVLYLCGRRFGGKLLRRFSKHQDKIERAQKLIQRHPYLFVIGTRFMYGFRVIGPTLIGASQLPPKIFLPLNILGAFAWALIFTTIGYAGGQVIAPWLHNLDQHLKHWVWLILVVVLVVGVRWWLKRSGKKKPDHQA
- protein production: failed

Sequence: MGLGIVLQGEKQVVIGDQILTYCAGQTMLTTIDVPVVSHTHNAKNHKPFLGLMLLLDLSMISKVVTQMEQLNIKEKVQPSFAVQPIDYVLIEAVQRLVTLLDEPILLSQLSPIIQQEIMIRLLAGVNGVYLRQLIRVGSVSERVAKVVNWLKQNFVETIRLDELADRFYMSSATLRQHFREVTGMSPLQYQKHLRLQQARHLLFNQNLEVGHTADLVGYESVSQFSREYARLFGATPLKDKQAAQLS
- protein production: failed

Sequence: MTNTPRQGATLAVLIDADNAAPAIVEGLLAEVAKYGVAAVKRIYGDWTRPNLSGWKDRLLAHSIQPIQQFRYTVGKNATDSAMIIDAMDLLYTGRFDGFCIVSSDSDFTRLASRIREQGLTVYGFGERKTPKPFVTACDKFIYSDVLRADADSDSDSETGSAPARKRTTQELRQDSRLVRLLQSASQAVSDEDGWSTLGGIGNYIAKQAPEFDSRNYGYGKLSELVTATNLFEVETRNGGNNKTLWVRLKKRNKGEGGGQPQPAQPQQQQQPQQQGQSSQPSQSQQPSQQAQPQQQRPAPAPARPVQPAPEPVAVIPATEPARVTEEEDDDAAGSASTLIQEAVEVSTERPKAGGKRGKRPDVTLSDTPWPIDQSVFSAPGATVLSAQVDVPEETKAAAPAEEAKKPAKKKPAAKKAAPRKRAPAKKAAAAE
- protein production: failed

Sequence: MLPNLNRIPQVEQYVLDYLDDLQCQHFEGDIATNYADRLSLATDNSVYQQLPQAILFPKTVADIVRITKLANLPEYQSISFTPRGGGTGTNGQSINNNIIVDLSRHMTA
- protein production: failed

Sequence: MSKQLLALNIDGALLRSNGKIHQATKDAIEYVKKKGIYVTLVTNRHFRSAQKIAKSLKLDAKLITHSGAYIAEKIDAPFFEKRISDDHTFNIVQVLESYQCNIRLLHEKYSIGNKKKVNSNLLGKALIHPSDPIFYPVQFVESLSDLLMDEPVSAPVIEVYTEHDIQHDITETITKAFPAVDVIRVNDEKLNIVPKGVSKEAGLALVASELGLSMDDVVAIGHQYDDLPMIELAGLGVAMGNAVPEIKRKADWVTRSNDEQGVAYMMKEYFRMQQRKGFLDKFHMKR
- protein production: not failed

Sequence: MWNYQKNILVCMIAGLGLSTCTPSDVSIPGAATIDVMNGFPDGESGYALGVSGCYAGKLGDFLLMAGGCNFPDKPVSEGGIKHYYKGIYIARVDDSSSLRWVKAGELPMEAAYGATVSLPDRLIFIGGSNSSDRFSSVLSFSFDCMKDSGLICETLPPLPHAVDNMSATLLGDTLYVLGGNRNGIPSSSMFSLCLDNYSAGWTEVPFPGRPRVQPVCSSLLGKLYVFGGFTSGGDASVSTDGLCYHPESGQWQVVKAPLTTKGEPLTLTGGASVSYGDVLLICAGGVNRDIFEDAISARYQMVRESEYLLQPIEWYRFNDQLLAYNVRSGEWIRIGVPSPMLARAGSSLVVFGDILFYIGGELKPGVRTPGICRISLQK
- protein production: failed

Sequence: MSHSVEAEDNKLVKTFKDIIPLTFGEEIGNSVSHGVAAFIALCALPYAAIHSFLEYGVLGAFSVSVYVISIFLMFISSTVYHAMPNQSSHKFILRIIDHSMIYVAIAGTYTPICLTLVGGWIGWSSMVVLWGITIWGILYKSLAKNVNHKLSLIMYLVMGWIGVLFLPTIIFDSSLLFMLFILFGGLAYTIGAWFYAQKNRPYFHMIWHFFIIVASVFHFVAIMYFM
- protein production: failed
